Reference: patent US20240101667A1, “METHODS FOR IDENTIFYING LILRB-BLOCKING ANTIBODIES” (THE BOARD OF REGENTS OF THE UNIVERSITY OF TEXAS SYSTEM, priority 2020, published 2024)
Values belong to the molecule of their own block, whether it stands above or below them.

Key:
LILRB3 [1] = biological target: T1, LILRB3 (Homo sapiens, UniProt O75022); assay: Octet-based epitope binning assay; assay type: binding; conditions: Octet sandwich binning
Experimental: (§1) Affinity measurement and epitope binning: Affinity measurement and epitope binning were done as described previously (Gui et al., 2019). Briefly, antibody affinity was analyzed with the Octet RED96 instrument. Antibody ([…]) was loaded onto the protein A biosensors then exposed to a series of concentrations of recombinant LILRB3 (0.1-200 nmol/L), and background subtraction was used to correct for sensor drift. ForteBio's data analysis software was used to extract association and dissociation rates assuming a 1:1 binding model. The Kd was calculated as the ratio koff/kon. Epitope binning of anti-LILRB3 rabbit antibodies was performed with an Octet RED96 instrument using a classical sandwich epitope binning assay. In these epitope binning assays, primary antibodies (40 μg/ml) were loaded onto protein A biosensors, and remaining Fc-binding sites on the sensor were blocked with a human non-targeting IgG (200 μg/ml). The sensors were then exposed to the 1 μM LILRB3 diluted in 1× kinetics buffer, followed by the secondary antibodies (40 μg/ml). Raw data were processed using ForteBio's Data Analysis Software 7.0. Antibody pairs were assessed for competitive binding. […]

LILRB3 [2] = biological target: T1, LILRB3; assay: Affinity measurement with Octet RED96; assay type: binding; conditions: compared between the two IgGs of bin 3
Experimental: as §1

LILRAs and other LILRBs = assay: Cross-reactivity with LILRAs and other LILRBs (binding analyses); design: species or system human; conditions: versus LILRAs and other LILRBs
Experimental: (§2) FIGS. S6A-J. Development of anti-LILRB3 blocking antibodies for suppressing AML development. (FIG. S6a) Upper: Flow chart of strategy for development of fully humanized antibodies against LILRB3. Lower: The identified antibodies were tested in the LILRB3 chimeric receptor reporter cell assay. (FIG. S6b) ELISA results for LILRB3 binders. (FIG. S6c) EC50 values of the anti-LILRB3 antibodies based on ELISA. (FIG. S6d) Affinities of antibodies #32, #33, #67, and #45 to LILRB3 as determined by Octet. (FIG. S6e) Cross-reactivity of the anti-LILRB3 antibodies with LILRAs evaluated with LILRA binding analyses. (FIG. S6f) Cross-reactivity of the anti-LILRB3 antibodies with other LILRBs evaluated with LILRB binding analyses. (FIG. S6g) Interaction with TRAF2 contributes to the effect of LILRB3 on AML development. CFU assay of MLL-AF9 AML cells expressing wild-type LILRB3 or mutant LILRB3 with mutations disrupting TRAF2 binding (AAA, QEE509-511AAA) or disrupting SHP-1/2 interactions (Y596/626F) in the presence of control or anti-LILRB3 antibodies (n=3 wells). […] (FIG. S6j) NF-κB signaling target gene expression (measured by qPCR) in THP-1 cells from BM of xenografted NSG mice treated with anti-LILRB3 #1NA or IgG (n=3 individual samples). The data are presented as mean±s.e.m, and p values were calculated by two-tailed t-test except for FIG. S6i by log-rank test.

MLL-AF9 AML cells = assay: CFU assay of mouse MLL-AF9 AML cells; assay type: cell-based; conditions: for colony formation by MLL-AF9 cells: screen of the high-affinity IgGs
Source text: (§3) FIGS. 7A-N. Blocking anti-LILRB3 antibody prevents monocytic AML development. (FIG. 7A) Epitope binning of 30 high-affinity IgGs. (FIG. 7B) CFU assay of mouse MLL-AF9 AML cells in the presence of above IgGs (n=3 independent experiments). (FIG. 7C) Binding affinities of the two IgGs from bin #3. (FIG. 7D) Upper: Schematic of treatment. Lower: Percentages of GFP^+ MLL-AF9 mouse AIL cells in peripheral blood (PB), bone marrow (BM), spleen (SPL), and liver (LV) of mice transplanted with AML cells expressing B3-FL or B3delICD and injected with IgG or anti-LILRB3 #1 N297A (n=3 independent mice). (FIG. 7E) Overall survival of mice transplanted with indicated AML cells as above. (FIG. 7F) CFU assay of MLL-AF9 mouse AML cells expressing B3-FL or B3delICD in the presence of IgG or anti-LILRB3 #1 N297A (n=3 independent experiments) (FIG. 7G) Upper: Schematic of treatment. Recipient mice were injected with mouse IgG or anti-mCD8 to deplete CD8 T cells. Lower: Percentages of GFP^+ MLL-AF9 mouse AML cells in peripheral blood (PB), bone marrow (BM), spleen (SPL), and liver (LV) of mice transplanted with AML cells expressing B3-FL or B3delICD and injected with IgG or anti-LILRB3 #1 LALAPG (n=4 mice). (FIG. 7H) Survival of mice as in panel h (n=4 independent mice). (FIG. 7I) Upper: Schematic of treatment. Lower: Whole-body images of NSG mice transplanted with luciferase-expressing THP-1 cells and treated with IgG or anti-LILRB3 #1 N297A (#1NA). (FIG. 7J) Overall survival of the mice shown in panel h (n=3 independent mice). (FIG. 7K) Upper: Schematic of treatment. Lower: Whole-body images of NSG mice transplanted with luciferase-expressing Molm13 cells, injected with activated T cells, and treated with IgG or #1NA. (FIG. 7L) Luciferase signaling as a function of time in mice treated as described in panel k. (FIG. 7M) Overall survival of mice treated as described in panel k (n=3 independent mice). (FIG. 7N) Analyses of T cells in peripheral blood of mice treated as described in panel 1 at 22 days after Molm13 AML cell transplantation. Upper: Flow cytometry analyses. Lower: Plot of T cell percentages (n=3 independent mice). The data are presented as mean±s.e.m, and p values were calculated by two-tailed t-test except for FIG. 7E, FIG. 7H, FIG. 7J and FIG. 7M by log-rank test.
as §2, with “development.” for “development. CFU assay of MLL-AF9 AML cells expressing wild-type LILRB3 or mutant LILRB3 with mutations disrupting TRAF2 binding (AAA, QEE509-511AAA) or disrupting SHP-1/2 interactions (Y596/626F) in the presence of control or anti-LILRB3 antibodies (n=3 wells).”, “The data are presented as mean±s.e.m, and p values were calculated by two-tailed t-test except for FIG. S6i by log-rank test.” left out

[3] = test system: MLL-AF9 AML cells expressing B3-FL or B3delICD; assay: Immuno-competent mice transplanted with MLL-AF9 AML cells expressing B3-FL or B3delICD; assay type: in vivo, mouse; conditions: versus IgG
Source text: as §3, with “(FIG. 7N) Analyses of T cells in peripheral blood of mice treated as described in panel 1 at 22 days after Molm13 AML cell transplantation. Upper: Flow cytometry analyses. Lower: Plot of T cell percentages (n=3 independent mice).” left out, “test. […]” for “test.”

LILRB3 epitope bin (LILRB3 [1]): third bin
binding affinity (LILRB3 [2]): higher affinity than #26
specificity to LILRB3 (LILRAs and other LILRBs): specific to LILRB3
B1: #1: fully human anti-LILRB3 blocking IgG, epitope bin 3; B3-1 VH SEQ ID NO: 341, VL SEQ ID NO: 395 (antibody, V domains shown)
VH: EVQLVESGGGVVQPGRSLRLSCAASGFTFSSYGMHWVRQAPGKGLEWVAFIRYDGSNKYYADSVKGRFTISRDNSKNTLYLQMNSLRAEDTAVYYCAKAGFSGWYYYGMDVWGQGTMVTVSS
VL: DIVMTQSPSSLSASVGDRLTITCRASQSISTYLNWYQQKPGKAPKLLIYGASSLQSGVPSRFSGSGSGTDFTLTISSLQPEDFATYFCQQSYGLPLTFGGGTKVDIK
modifications: Synthetic antibody
colony formation by MLL-AF9 cells (MLL-AF9 AML cells): blocked colony formation by MLL-AF9 cells

B2: anti-LILRB3 #6: anti-LILRB3 antibody which cannot inhibit LILRB3 signaling; B3-6 VH SEQ ID NO: 345, VL SEQ ID NO: 399 (antibody, V domains shown)
VH: QVQLQQSGPGLVKPSQTLSLTCAISGDSVSSNSAAWNWIRQSPSRGLEWLGRTYYRSKWYNNYAVSVKSRITINPDTSKNQFSLQLNSVTPEDTAVYYCARALAGIDGFDVWGQGTTVSVSS
VL: AIQLTQSPSSLSASVGDRITITCRASQSISKYLNWYQQKPGEAPKLLIYAASSLQSGVPSRFSGSGSGTDFTLTISSLQPEDFATYYCQEKDNFGQGTKLEIK
modifications: Synthetic antibody
inhibition of LILRB3 signaling (MLL-AF9 AML cells; FIG. 7b): cannot inhibit LILRB3 signaling
progress of AML with B3-FL and with B3del ICD [3]: suppresses the progresses of both AML with B3-FL and AML with B3del ICD with similar efficacies

LILRB3 epitope bin (LILRB3 [1]): third bin
specificity to LILRB3 (LILRAs and other LILRBs): specific to LILRB3
B3: #26: fully human anti-LILRB3 IgG, epitope bin 3; B3-26 VH SEQ ID NO: 353, VL SEQ ID NO: 407 (antibody, V domains shown)
VH: QVQMVESGGGLVKPGGSLRLSCAASGFTFSDHYLSWIRQAPGKGLEWVSYIDLSGSTVYYGDSVKGRFTISRDNARNSVYLQMNSLRAEDTAVYYCARGHYGLDVWGQGTMVTVSS
VL: NIQMTQSPSTLSASVGDRVTISCRASQSIGTWLAWYQQKPGKAPQLLIYKASSLHSGVPSRFSGSGSGTEFTLTISSLQPDDFATYYCQQYNLYSRTFGQGTKVEIK
modifications: Synthetic antibody
colony formation by MLL-AF9 cells (MLL-AF9 AML cells): blocked colony formation by MLL-AF9 cells
